Laboratory results: patent US20150344570A1 (published 2015)

B1: GpH7-A5/GpH7-B3 variant L328_04F/GpL16-k0 (antibody, human IgG1, kappa)
heavy 1: not shown
heavy 2: not shown
light: DIVMTQSPLSLPVTPGEPASISCQASESLVHSNRNTYLHWYLQKPGQSPQLLIYKVSNRFSGVPDRFSGSGSGTDFTLKISRVEAEDVGVYYCSQNTHVPPTFGQGTKVEIERTVAAPSVFIFPPSDEQLKSGTASVVCLLNNFYPREAKVQWKVDNALQSGNSQESVTEQDSKDSTYSLSSTLTLSKADYEKHKVYACEVTHQGLSSPVTKSFNRGEC
notes: Heterodimerized anti-glypican-3 IgG1; mutation in the GpH7-B3 chain only; also called He Ab
B2: GpH7-A5/GpH7-B3 variant V266_05P/GpL16-k0 (antibody, human IgG1, kappa)
heavy 1: not shown
heavy 2: not shown
light: B1 light
notes: as for B1
B3: GpH7-A5/GpH7-B3 variant S267_16H/GpL16-k0 (antibody, human IgG1, kappa)
heavy 1: not shown
heavy 2: not shown
light: B1 light
notes: as for B1
B4: GpH7-A5/GpH7-B3 variant V266_06M/GpL16-k0 (antibody, human IgG1, kappa)
heavy 1: not shown
heavy 2: not shown
light: B1 light
notes: as for B1
B5: GpH7-A5/GpH7-B3 variant S267_19Q/GpL16-k0 (antibody, human IgG1, kappa)
heavy 1: not shown
heavy 2: not shown
light: B1 light
notes: as for B1
B6: GpH7-A5/GpH7-B3 variant P271_01G/GpL16-k0 (antibody, human IgG1, kappa)
heavy 1: not shown
heavy 2: not shown
light: B1 light
notes: as for B1
B7: GpH7-A5/GpH7-B3 variant N325_20W/GpL16-k0 (antibody, human IgG1, kappa)
heavy 1: not shown
heavy 2: not shown
light: B1 light
notes: as for B1
B8: GpH7-A5/GpH7-B3 variant P238_04F/GpL16-k0 (antibody, human IgG1, kappa)
heavy 1: not shown
heavy 2: not shown
light: B1 light
notes: as for B1
B9: GpH7-A5/GpH7-B3 variant S267_14T/GpL16-k0 (antibody, human IgG1, kappa)
heavy 1: not shown
heavy 2: not shown
light: B1 light
notes: as for B1
B10: GpH7-A5/GpH7-B3 variant L328_11K/GpL16-k0 (antibody, human IgG1, kappa)
heavy 1: not shown
heavy 2: not shown
light: B1 light
notes: as for B1
B11: GpH7-A5/GpH7-B3 variant S239_10E/GpL16-k0 (antibody, human IgG1, kappa)
heavy 1: not shown
heavy 2: not shown
light: B1 light
notes: as for B1
B12: GpH7-A5/GpH7-B3 variant S267_10E/GpL16-k0 (antibody, human IgG1, kappa)
heavy 1: not shown
heavy 2: not shown
light: B1 light
notes: as for B1
B13: GpH7-A5/GpH7-B3 variant P238_15Y/GpL16-k0 (antibody, human IgG1, kappa)
heavy 1: not shown
heavy 2: not shown
light: B1 light
notes: as for B1
B14: GpH7-A5/GpH7-B3 variant P238_10E/GpL16-k0 (antibody, human IgG1, kappa)
heavy 1: not shown
heavy 2: not shown
light: B1 light
notes: as for B1
B15: GpH7-A5/GpH7-B3 variant P238_09D/GpL16-k0 (antibody, human IgG1, kappa)
heavy 1: not shown
heavy 2: not shown
light: B1 light
notes: as for B1
B16: GpH7-A5/GpH7-B3 variant L328_07I/GpL16-k0 (antibody, human IgG1, kappa)
heavy 1: not shown
heavy 2: not shown
light: B1 light
notes: as for B1
B17: GpH7-A5/GpH7-B3 variant S239_09D/GpL16-k0 (antibody, human IgG1, kappa)
heavy 1: not shown
heavy 2: not shown
light: B1 light
notes: as for B1
B18: GpH7-A5/GpH7-B3 variant L328_10E/GpL16-k0 (antibody, human IgG1, kappa)
heavy 1: not shown
heavy 2: not shown
light: B1 light
notes: as for B1
B19: GpH7-A5/GpH7-B3 variant L328_12R/GpL16-k0 (antibody, human IgG1, kappa)
heavy 1: not shown
heavy 2: not shown
light: B1 light
notes: as for B1
B20: GpH7-A5/GpH7-B3 variant S267_06M/GpL16-k0 (antibody, human IgG1, kappa)
heavy 1: not shown
heavy 2: not shown
light: B1 light
notes: as for B1
B21: GpH7-A5/GpH7-B3 variant S267_02A/GpL16-k0 (antibody, human IgG1, kappa)
heavy 1: not shown
heavy 2: not shown
light: B1 light
notes: as for B1
B22: GpH7-A5/GpH7-B3 variant N325_07I/GpL16-k0 (antibody, human IgG1, kappa)
heavy 1: not shown
heavy 2: not shown
light: B1 light
notes: as for B1
B23: GpH7-A5/GpH7-B3 variant L328_09D/GpL16-k0 (antibody, human IgG1, kappa)
heavy 1: not shown
heavy 2: not shown
light: B1 light
notes: as for B1
B24: GpH7-A5/GpH7-B3 variant S267_03V/GpL16-k0 (antibody, human IgG1, kappa)
heavy 1: not shown
heavy 2: not shown
light: B1 light
notes: as for B1
B25: GpH7-A5/GpH7-B3 variant S267_11K/GpL16-k0 (antibody, human IgG1, kappa)
heavy 1: not shown
heavy 2: not shown
light: B1 light
notes: as for B1
B26: GpH7-A5/GpH7-B3 variant S267_09D/GpL16-k0 (antibody, human IgG1, kappa)
heavy 1: not shown
heavy 2: not shown
light: B1 light
notes: as for B1
B27: GpH7-A5/GpH7-B3 variant S267_04F/GpL16-k0 (antibody, human IgG1, kappa)
heavy 1: not shown
heavy 2: not shown
light: B1 light
notes: as for B1
B28: GpH7-A5/GpH7-B3 variant N325_08L/GpL16-k0 (antibody, human IgG1, kappa)
heavy 1: not shown
heavy 2: not shown
light: B1 light
notes: as for B1
B29: GpH7-A5/GpH7-B3 variant S267_12R/GpL16-k0 (antibody, human IgG1, kappa)
heavy 1: not shown
heavy 2: not shown
light: B1 light
notes: as for B1
B30: GpH7-A5/GpH7-B3 variant N325_06M/GpL16-k0 (antibody, human IgG1, kappa)
heavy 1: not shown
heavy 2: not shown
light: B1 light
notes: as for B1
B31: GpH7-A5/GpH7-B3 variant P238_08L/GpL16-k0 (antibody, human IgG1, kappa)
heavy 1: not shown
heavy 2: not shown
light: B1 light
notes: as for B1
B32: GpH7-A5/GpH7-B3 variant S267_07I/GpL16-k0 (antibody, human IgG1, kappa)
heavy 1: not shown
heavy 2: not shown
light: B1 light
notes: as for B1
B33: GpH7-A5/GpH7-B3 variant V266_04F/GpL16-k0 (antibody, human IgG1, kappa)
heavy 1: not shown
heavy 2: not shown
light: B1 light
notes: as for B1

Assays:
FcγRIIa R [1] = molecular target: T1, FcγRIIa R (human, UniProt P12318 34-217); test: SPR; He/Con_2aR divided by He/Con_2b (FcγRIIa R over FcγRIIb)
T1 construct: extracellular domain; also called FcgRIIa R type; 2aR; not shown: His tag at the C terminus
T1 sequence (looked up): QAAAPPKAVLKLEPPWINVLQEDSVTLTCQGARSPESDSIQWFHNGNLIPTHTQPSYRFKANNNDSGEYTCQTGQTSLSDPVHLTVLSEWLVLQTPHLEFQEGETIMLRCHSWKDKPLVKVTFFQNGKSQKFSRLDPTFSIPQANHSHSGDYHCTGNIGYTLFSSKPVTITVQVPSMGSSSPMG

FcγRIIa R [2] = molecular target: T1, FcγRIIa R; test: SPR, relative to GpH7-A5/GpH7-B3/GpL16-k0
FcγRIIb = molecular target: T2, FcγRIIb (human, UniProt P31994 43-217); test: SPR, relative to GpH7-A5/GpH7-B3/GpL16-k0
T2 construct: extracellular domain; also called FcgRIIb; 2b; not shown: His tag at the C terminus
T2 sequence (looked up): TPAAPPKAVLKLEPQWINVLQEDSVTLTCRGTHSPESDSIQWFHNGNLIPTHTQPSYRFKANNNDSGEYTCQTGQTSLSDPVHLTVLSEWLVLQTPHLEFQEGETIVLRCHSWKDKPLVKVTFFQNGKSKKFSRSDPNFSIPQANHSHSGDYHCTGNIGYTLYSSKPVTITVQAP

| Binder | He_2aR/2b (FcγRIIa R [1]) | He/Con_2aR (FcγRIIa R [2]) | He/Con_2b (FcγRIIb) |
| --- | --- | --- | --- |
| B1 | 0.63 ratio | 138 control = 100 | 219 control = 100 |
| B2 | -8.33 ratio | -2.9 control = 100 | 0.4 control = 100 |
| B3 | 0.77 ratio | 50.6 control = 100 | 65.9 control = 100 |
| B4 | 0.6 ratio | 150 control = 100 | 251 control = 100 |
| B5 | 0.62 ratio | 135 control = 100 | 218 control = 100 |
| B6 | 0.75 ratio | 144 control = 100 | 193 control = 100 |
| B7 | 0.79 ratio | 134 control = 100 | 169 control = 100 |
| B8 | 0.56 ratio | 174 control = 100 | 312 control = 100 |
| B9 | 0.78 ratio | 81.9 control = 100 | 104 control = 100 |
| B10 | 0.33 ratio | 2.5 control = 100 | 7.5 control = 100 |
| B11 | 0.75 ratio | 135 control = 100 | 181 control = 100 |
| B12 | 0.46 ratio | 175 control = 100 | 379 control = 100 |
| B13 | 0.72 ratio | 156 control = 100 | 218 control = 100 |
| B14 | 0.65 ratio | 151 control = 100 | 232 control = 100 |
| B15 | 0.67 ratio | 148 control = 100 | 221 control = 100 |
| B16 | 0.78 ratio | 124 control = 100 | 160 control = 100 |
| B17 | 0.66 ratio | 137 control = 100 | 206 control = 100 |

| Binder | He_2aR/2b (FcγRIIa R [1]) | He/Con_2aR (FcγRIIa R [2]) | He/Con_2b (FcγRIIb) |
| --- | --- | --- | --- |
| B18 | 0.61 ratio | 105 control = 100 | 172 control = 100 |
| B19 | 0.54 ratio | 5 control = 100 | 9.2 control = 100 |
| B20 | 0.58 ratio | 122 control = 100 | 210 control = 100 |
| B21 | 0.64 ratio | 155 control = 100 | 243 control = 100 |
| B22 | 0.78 ratio | 133 control = 100 | 171 control = 100 |
| B23 | 0.6 ratio | 119 control = 100 | 199 control = 100 |
| B24 | 0.61 ratio | 116 control = 100 | 192 control = 100 |
| B25 | 0.3 ratio | 3.6 control = 100 | 12.2 control = 100 |
| B26 | 0.56 ratio | 173 control = 100 | 310 control = 100 |
| B27 | 0.79 ratio | 37.8 control = 100 | 48 control = 100 |
| B28 | 0.73 ratio | 144 control = 100 | 197 control = 100 |
| B29 | 0.32 ratio | 3.6 control = 100 | 11.3 control = 100 |
| B30 | 0.7 ratio | 152 control = 100 | 217 control = 100 |
| B31 | 0.68 ratio | 140 control = 100 | 204 control = 100 |
| B32 | 0.58 ratio | 111 control = 100 | 192 control = 100 |
| B33 | 0.77 ratio | 44.4 control = 100 | 57.6 control = 100 |
